Experimental data reported in the supplement of paper PMC10724198.
± gives the standard deviation of the averaged measurements.

What was measured:
Saccharomyces cerevisiae [1] = assay: protein stability index of tFT-peptide fusion (C-terminal peptide) (PSI (0-1 scale)); higher = more stable (slower turnover)
Method: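 MPS profiling in S. cerevisiae of the tFT-X12 degron library: putative degron peptides plus stable controls, 12 aa, fused to the C-terminus of a sfGFP-mCherry timer. Cells are FACS-sorted into 8 mCherry/sfGFP bins and deep-sequenced. PSI runs from 0 (unstable) to 1 (stable). Backgrounds are wild type, das1Δ and doa10Δ at 30 °C, and wild type, das1Δ, cdc34-1 and cdc53-1 at 37 °C; 2-3 technical replicates each.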

Saccharomyces cerevisiae [2] = assay: as above; conditions: genetic background: wild type; temperature: 30 C
[3] = genetic background: cdc34-1, temperature: 37 C
[4] = genetic background: cdc53-1, temperature: 37 C
[5] = genetic background: das1 deletion, temperature: 30 C
[6] = genetic background: das1 deletion, temperature: 37 C
[7] = genetic background: doa10 deletion, temperature: 30 C
[8] = genetic background: wild type, temperature: 30 C
[9] = genetic background: wild type, temperature: 37 C
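Note: PSI is a weighted mean of sequencing reads over stability bins, variants kept only with over 10 reads, mCherry proximal and sfGFP distal, peptide attached via GGGS linker.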

PFFCFLLFCFSL
protein stability index (Saccharomyces cerevisiae [1]; [3]): 0.477 ± 0.032
protein stability index (Saccharomyces cerevisiae [1]; [4]): 0.498 ± 0.0033
protein stability index (Saccharomyces cerevisiae [1]; [5]): 0.439 ± 0.033
protein stability index (Saccharomyces cerevisiae [1]; [6]): 0.5465 ± 0.00098
protein stability index (Saccharomyces cerevisiae [1]; [7]): 0.459 ± 0.0093
protein stability index (Saccharomyces cerevisiae [1]; [8]): 0.419 ± 0.027
protein stability index (Saccharomyces cerevisiae [1]; [9]): 0.5292 ± 0.0024
protein stability index (Saccharomyces cerevisiae [2]): 0.455 ± 0.037

PFFLLAGITVAC
protein stability index (Saccharomyces cerevisiae [1]; [3]): 0.0507 ± 0.023
protein stability index (Saccharomyces cerevisiae [1]; [4]): 0.0625 ± 0.026
protein stability index (Saccharomyces cerevisiae [1]; [5]): 0.177 ± 0.031
protein stability index (Saccharomyces cerevisiae [1]; [6]): 0.203 ± 0.0027
protein stability index (Saccharomyces cerevisiae [1]; [7]): 0.139 ± 0.0038
protein stability index (Saccharomyces cerevisiae [1]; [8]): 0.15 ± 0.025
protein stability index (Saccharomyces cerevisiae [1]; [9]): 0.16 ± 0.0058
protein stability index (Saccharomyces cerevisiae [2]): 0.273 ± 0.016

PFLCLPFLLVSR
protein stability index (Saccharomyces cerevisiae [1]; [3]): 0.38 ± 0.022
protein stability index (Saccharomyces cerevisiae [1]; [4]): 0.4056 ± 0.0025
protein stability index (Saccharomyces cerevisiae [1]; [5]): 0.35 ± 0.029
protein stability index (Saccharomyces cerevisiae [1]; [6]): 0.49 ± 0.0032
protein stability index (Saccharomyces cerevisiae [1]; [7]): 0.467 ± 0.017
protein stability index (Saccharomyces cerevisiae [1]; [8]): 0.363 ± 0.027
protein stability index (Saccharomyces cerevisiae [1]; [9]): 0.47142 ± 0.0004
protein stability index (Saccharomyces cerevisiae [2]): 0.41 ± 0.034

PFPTPPPIPRSP
protein stability index (Saccharomyces cerevisiae [1]; [3]): 0.665 ± 0.012
protein stability index (Saccharomyces cerevisiae [1]; [4]): 0.7375 ± 0.0026
protein stability index (Saccharomyces cerevisiae [1]; [5]): 0.686 ± 0.015
protein stability index (Saccharomyces cerevisiae [1]; [6]): 0.729 ± 0.0085
protein stability index (Saccharomyces cerevisiae [1]; [7]): 0.706 ± 0.035
protein stability index (Saccharomyces cerevisiae [1]; [8]): 0.696 ± 0.012
protein stability index (Saccharomyces cerevisiae [1]; [9]): 0.7051 ± 0.0068
protein stability index (Saccharomyces cerevisiae [2]): 0.464 ± 0.05

PGRHSVRFVFVC
protein stability index (Saccharomyces cerevisiae [1]; [3]): 0.349 ± 0.023
protein stability index (Saccharomyces cerevisiae [1]; [4]): 0.519 ± 0.046
protein stability index (Saccharomyces cerevisiae [1]; [5]): 0.444 ± 0.019
protein stability index (Saccharomyces cerevisiae [1]; [6]): 0.581 ± 0.024
protein stability index (Saccharomyces cerevisiae [1]; [7]): 0.113 ± 0.0067
protein stability index (Saccharomyces cerevisiae [1]; [8]): 0.112 ± 0.028
protein stability index (Saccharomyces cerevisiae [1]; [9]): 0.143 ± 0.0068
protein stability index (Saccharomyces cerevisiae [2]): 0.208 ± 0.06

PKRNNRKAQQIS
protein stability index (Saccharomyces cerevisiae [1]; [3]): 0.61 ± 0.015
protein stability index (Saccharomyces cerevisiae [1]; [4]): 0.698 ± 0.038
protein stability index (Saccharomyces cerevisiae [1]; [5]): 0.689 ± 0.019
protein stability index (Saccharomyces cerevisiae [1]; [6]): 0.704 ± 0.06
protein stability index (Saccharomyces cerevisiae [1]; [7]): 0.249 ± 0.016
protein stability index (Saccharomyces cerevisiae [1]; [8]): 0.254 ± 0.043
protein stability index (Saccharomyces cerevisiae [1]; [9]): 0.493 ± 0.019
protein stability index (Saccharomyces cerevisiae [2]): 0.405 ± 0.032

PPAPTPFPPSPR
protein stability index (Saccharomyces cerevisiae [1]; [3]): 0.687 ± 0.037
protein stability index (Saccharomyces cerevisiae [1]; [4]): 0.7216 ± 0.0033
protein stability index (Saccharomyces cerevisiae [1]; [5]): 0.669 ± 0.034
protein stability index (Saccharomyces cerevisiae [1]; [6]): 0.741 ± 0.018
protein stability index (Saccharomyces cerevisiae [1]; [7]): 0.697 ± 0.026
protein stability index (Saccharomyces cerevisiae [1]; [8]): 0.672 ± 0.024
protein stability index (Saccharomyces cerevisiae [1]; [9]): 0.728 ± 0.01
protein stability index (Saccharomyces cerevisiae [2]): 0.593 ± 0.14

PPLPPPPASVPP
protein stability index (Saccharomyces cerevisiae [1]; [3]): 0.675 ± 0.022
protein stability index (Saccharomyces cerevisiae [1]; [4]): 0.719 ± 0.025
protein stability index (Saccharomyces cerevisiae [1]; [5]): 0.641 ± 0.011
protein stability index (Saccharomyces cerevisiae [1]; [6]): 0.7088 ± 0.0051
protein stability index (Saccharomyces cerevisiae [1]; [7]): 0.6476 ± 0.0014
protein stability index (Saccharomyces cerevisiae [1]; [8]): 0.682 ± 0.041
protein stability index (Saccharomyces cerevisiae [1]; [9]): 0.68 ± 0.03
protein stability index (Saccharomyces cerevisiae [2]): 0.503 ± 0.016

PPPPPPPFLFFL
protein stability index (Saccharomyces cerevisiae [1]; [3]): 0.706 ± 0.018
protein stability index (Saccharomyces cerevisiae [1]; [4]): 0.795 ± 0.019
protein stability index (Saccharomyces cerevisiae [1]; [5]): 0.643 ± 0.013
protein stability index (Saccharomyces cerevisiae [1]; [6]): 0.747 ± 0.013
protein stability index (Saccharomyces cerevisiae [1]; [7]): 0.458 ± 0.015
protein stability index (Saccharomyces cerevisiae [1]; [8]): 0.472 ± 0.022
protein stability index (Saccharomyces cerevisiae [1]; [9]): 0.61 ± 0.013
protein stability index (Saccharomyces cerevisiae [2]): 0.496 ± 0.061

PPTRVPVTLFLV
protein stability index (Saccharomyces cerevisiae [1]; [3]): 0.395 ± 0.013
protein stability index (Saccharomyces cerevisiae [1]; [4]): 0.673 ± 0.017
protein stability index (Saccharomyces cerevisiae [1]; [5]): 0.619 ± 0.0097
protein stability index (Saccharomyces cerevisiae [1]; [6]): 0.6761 ± 0.0013
protein stability index (Saccharomyces cerevisiae [1]; [7]): 0.0767 ± 0.022
protein stability index (Saccharomyces cerevisiae [1]; [8]): 0.0832 ± 0.011
protein stability index (Saccharomyces cerevisiae [1]; [9]): 0.09 ± 0.0034
protein stability index (Saccharomyces cerevisiae [2]): 0.153 ± 0.013

PRLWLYCLIISL
protein stability index (Saccharomyces cerevisiae [1]; [3]): 0.173 ± 0.032
protein stability index (Saccharomyces cerevisiae [1]; [4]): 0.214 ± 0.016
protein stability index (Saccharomyces cerevisiae [1]; [5]): 0.186 ± 0.039
protein stability index (Saccharomyces cerevisiae [1]; [6]): 0.335 ± 0.015
protein stability index (Saccharomyces cerevisiae [1]; [7]): 0.157 ± 0.011
protein stability index (Saccharomyces cerevisiae [1]; [8]): 0.14 ± 0.03
protein stability index (Saccharomyces cerevisiae [1]; [9]): 0.277 ± 0.022
protein stability index (Saccharomyces cerevisiae [2]): 0.2062 ± 0.00075

PVCRQVGVRLVA
protein stability index (Saccharomyces cerevisiae [1]; [3]): 0.582 ± 0.022
protein stability index (Saccharomyces cerevisiae [1]; [4]): 0.625 ± 0.052
protein stability index (Saccharomyces cerevisiae [1]; [5]): 0.525 ± 0.025
protein stability index (Saccharomyces cerevisiae [1]; [6]): 0.6482 ± 0.0047
protein stability index (Saccharomyces cerevisiae [1]; [7]): 0.265 ± 0.0046
protein stability index (Saccharomyces cerevisiae [1]; [8]): 0.311 ± 0.034
protein stability index (Saccharomyces cerevisiae [1]; [9]): 0.466 ± 0.039
protein stability index (Saccharomyces cerevisiae [2]): 0.456 ± 0.045

PVSEPCAWRIIA
protein stability index (Saccharomyces cerevisiae [1]; [3]): 0.374 ± 0.015
protein stability index (Saccharomyces cerevisiae [1]; [4]): 0.689 ± 0.026
protein stability index (Saccharomyces cerevisiae [1]; [5]): 0.6769 ± 0.0044
protein stability index (Saccharomyces cerevisiae [1]; [6]): 0.699 ± 0.018
protein stability index (Saccharomyces cerevisiae [1]; [7]): 0.0726 ± 0.0028
protein stability index (Saccharomyces cerevisiae [1]; [8]): 0.0645 ± 0.018
protein stability index (Saccharomyces cerevisiae [1]; [9]): 0.0736 ± 0.0023
protein stability index (Saccharomyces cerevisiae [2]): 0.1098 ± 0.00053

PWFCYVQLVVPV
protein stability index (Saccharomyces cerevisiae [1]; [3]): 0.226 ± 0.02
protein stability index (Saccharomyces cerevisiae [1]; [4]): 0.266 ± 0.0075
protein stability index (Saccharomyces cerevisiae [1]; [5]): 0.232 ± 0.035
protein stability index (Saccharomyces cerevisiae [1]; [6]): 0.349 ± 0.0058
protein stability index (Saccharomyces cerevisiae [1]; [7]): 0.188 ± 0.0072
protein stability index (Saccharomyces cerevisiae [1]; [8]): 0.221 ± 0.03
protein stability index (Saccharomyces cerevisiae [1]; [9]): 0.313 ± 0.0036
protein stability index (Saccharomyces cerevisiae [2]): 0.309 ± 0.0036

PYPPTSLPPTWQ
protein stability index (Saccharomyces cerevisiae [1]; [3]): 0.672 ± 0.043
protein stability index (Saccharomyces cerevisiae [1]; [4]): 0.7459 ± 0.0012
protein stability index (Saccharomyces cerevisiae [1]; [5]): 0.652 ± 0.0095
protein stability index (Saccharomyces cerevisiae [1]; [6]): 0.711 ± 0.017
protein stability index (Saccharomyces cerevisiae [1]; [7]): 0.678 ± 0.023
protein stability index (Saccharomyces cerevisiae [1]; [8]): 0.671 ± 0.038
protein stability index (Saccharomyces cerevisiae [1]; [9]): 0.701 ± 0.025
protein stability index (Saccharomyces cerevisiae [2]): 0.726 ± 0.026

QGGTWKKLVKMI
protein stability index (Saccharomyces cerevisiae [1]; [3]): 0.573 ± 0.05
protein stability index (Saccharomyces cerevisiae [1]; [4]): 0.6963 ± 0.006
protein stability index (Saccharomyces cerevisiae [1]; [5]): 0.643 ± 0.055
protein stability index (Saccharomyces cerevisiae [1]; [6]): 0.7165 ± 0.0019
protein stability index (Saccharomyces cerevisiae [1]; [7]): 0.0823 ± 0.02
protein stability index (Saccharomyces cerevisiae [1]; [8]): 0.101 ± 0.018
protein stability index (Saccharomyces cerevisiae [1]; [9]): 0.165 ± 0.019
protein stability index (Saccharomyces cerevisiae [2]): 0.226 ± 0.035

QNVKRIVRHMLT
protein stability index (Saccharomyces cerevisiae [1]; [3]): 0.62 ± 0.056
protein stability index (Saccharomyces cerevisiae [1]; [4]): 0.691 ± 0.041
protein stability index (Saccharomyces cerevisiae [1]; [5]): 0.658 ± 0.008
protein stability index (Saccharomyces cerevisiae [1]; [6]): 0.723 ± 0.04
protein stability index (Saccharomyces cerevisiae [1]; [7]): 0.207 ± 0.018
protein stability index (Saccharomyces cerevisiae [1]; [8]): 0.251 ± 0.022
protein stability index (Saccharomyces cerevisiae [1]; [9]): 0.41 ± 0.027
protein stability index (Saccharomyces cerevisiae [2]): 0.374 ± 0.018

QVSHLFAAVQLA
protein stability index (Saccharomyces cerevisiae [1]; [3]): 0.6103 ± 0.0049
protein stability index (Saccharomyces cerevisiae [1]; [4]): 0.687 ± 0.018
protein stability index (Saccharomyces cerevisiae [1]; [5]): 0.555 ± 0.0081
protein stability index (Saccharomyces cerevisiae [1]; [6]): 0.65 ± 0.0091
protein stability index (Saccharomyces cerevisiae [1]; [7]): 0.337 ± 0.021
protein stability index (Saccharomyces cerevisiae [1]; [8]): 0.364 ± 0.051
protein stability index (Saccharomyces cerevisiae [1]; [9]): 0.573 ± 0.011
protein stability index (Saccharomyces cerevisiae [2]): 0.4485 ± 0.00088

QWRMLTCLMERL
protein stability index (Saccharomyces cerevisiae [1]; [3]): 0.446 ± 0.034
protein stability index (Saccharomyces cerevisiae [1]; [4]): 0.553 ± 0.063
protein stability index (Saccharomyces cerevisiae [1]; [5]): 0.472 ± 0.015
protein stability index (Saccharomyces cerevisiae [1]; [6]): 0.4882 ± 0.0037
protein stability index (Saccharomyces cerevisiae [1]; [7]): 0.398 ± 0.056
protein stability index (Saccharomyces cerevisiae [1]; [8]): 0.379 ± 0.012
protein stability index (Saccharomyces cerevisiae [1]; [9]): 0.496 ± 0.03
protein stability index (Saccharomyces cerevisiae [2]): 0.379 ± 0.012
